Patent US20180251563A1 (SUBDOMAIN, published 2018)

T1: CD123 (target of Example 19) (Homo sapiens (Human), UniProt P26951 19-305, limits assumed)
T1 sequence: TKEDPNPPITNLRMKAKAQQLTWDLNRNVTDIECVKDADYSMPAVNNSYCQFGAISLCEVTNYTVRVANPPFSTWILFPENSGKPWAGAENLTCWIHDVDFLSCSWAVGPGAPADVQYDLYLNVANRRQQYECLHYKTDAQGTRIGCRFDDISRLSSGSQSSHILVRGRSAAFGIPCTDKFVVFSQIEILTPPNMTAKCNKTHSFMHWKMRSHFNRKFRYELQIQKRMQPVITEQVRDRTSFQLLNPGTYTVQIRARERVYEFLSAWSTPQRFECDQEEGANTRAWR


Target: T1, CD123 (target of Example 19)
Assay: library selection; assay not described

Row | Binder | binding result
1 | SEQ ID NO 75 (designed binder) MGSWVTFKDELADIKDFLEALGGSEAELAFFEVDIAEFEAELQFYKGKGNPEVEALRKEAAAIRDELQAYRHN | binds
2 | SEQ ID NO 86 (designed binder) MGSWYVFKDELAEIKQFLEALGGSEAELAWFEDDIAEFETQLQHYKGKGNPEVEALRKEAAAIRDELQAYRHN | binds
3 | SEQ ID NO 78 (designed binder) MGSWDEFKEDLAHIKTDLEALGGSEAELALFEDEIADFEMYLQHYKGKGNPEVEALRKEAAAIRDELQAYRHN | binds
4 | SEQ ID NO 96 (designed binder) MGSWIEFNMRLDAIYERLVALGGSEAELAAFEKEIAAFESELQAYKGKGNPEVEWLRKVAANIRLELQAYRHN | binds
5 | SEQ ID NO 125 (designed binder) MGSWSEFHVRLDAIYARLDALGGSEAELAAFEKEIAAFESELQAYKGKGNPEVERLREWAANIRRELQAYRHN | binds
6 | SEQ ID NO 94 (designed binder) MGSWTEFAWRLDAIYDRLLALGGSEAELAAFEKEIAAFESELQAYKGKGNPEVEWLRHVAANIRRELQAYRHN | binds
7 | SEQ ID NO 103 (designed binder) MGSWIEFEVRLDAIYNRLAALGGSEAELAAFEKEIAAFESELQAYKGKGNPEVERLRRYAANIRHELQAYRHN | binds
8 | SEQ ID NO 97 (designed binder) MGSWSEFNMRLDAIYERLTALGGSEAELAAFEKEIAAFESELQAYKGKGNPEVEWLRHSAARIRLELQAYRHN | binds
9 | SEQ ID NO 105 (designed binder) MGSWYEFHHRLDAIYERLLALGGSEAELAAFEKEIAAFESELQAYKGKGNPEVEWLRSSAANIRKELQAYRHN | binds
10 | SEQ ID NO 123 (designed binder) MGSWTEFNLRLDAIYDRLMALGGSEAELAAFEKEIAAFESELQAYKGKGNPEVEWLRASAAAIRVELQAYRHN | binds
11 | SEQ ID NO 124 (designed binder) MGSWSEFYLRLDAIYDRLDALGGSEAELAAFEKEIAAFESELQAYKGKGNPEVEWLRKTAANIREELQAYRHN | binds
12 | SEQ ID NO 98 (designed binder) MGSWVEFNIRLDAIYERLYALGGSEAELAAFEKEIAAFESELQAYKGKGNPEVEKLRHWAASIRRELQAYRHN | binds
13 | SEQ ID NO 74 (designed binder) MGSWSFFKDDLAEIKYFLEALGGSEAELAMFEQTIAEFEYDLQDYKGKGNPEVEALRKEAAAIRDELQAYRHN | binds
14 | SEQ ID NO 79 (designed binder) MGSWFMFKEELADIKDWLEALGGSEAELASFESYIAWFEQDLQWYKGKGNPEVEALRKEAAAIRDELQAYRHN | binds
15 | SEQ ID NO 69 (designed binder) MGSWWEFTDRLEAIEDRLWALGGSEAELAHFEDSIAQFEQELQWYKGKGNPEVEALADEADAIESELHAYRHN | binds
16 | SEQ ID NO 88 (designed binder) MGSWFWFKEDLAFIKEDLEALGGSEAELAWFEDGIAFFEWDLQDYKGKGNPEVEALRKEAAAIRDELQAYRHN | binds
17 | SEQ ID NO 68 (designed binder) MGSWWEFTDRLDAIFDRLWALGGSEAELAAFEESIAIFEQDLQYYKGKGNPEVEALEYEANAIQYELEAYRHN | binds
18 | SEQ ID NO 87 (designed binder) MGSWTEFKGELAEIKWILEALGGSEAELAFFEDEIAAFEWDLQKYKGKGNPEVEALRKEAAAIRDELQAYRHN | binds
19 | SEQ ID NO 73 (designed binder) MGSWYDFKEDLADIKWMLEALGGSEAELAEFENVIAYFENDLQEYKGKGNPEVEALRKEAAAIRDELQAYRHN | binds
20 | SEQ ID NO 70 (designed binder) MGSWEWFKSDLASIKWELEALGGSEAELAWFEHDIAEFEEDLQWYKGKGNPEVEALRKEAAAIRDELQAYRHN | binds
21 | SEQ ID NO 89 (designed binder) MGSWSWFKEDLASIKAVLEALGGSEAELAFFESDIAEFEQELQYYKGKGNPEVEALRKEAAAIRDELQAYRHN | binds
22 | SEQ ID NO 76 (designed binder) MGSWSWFKEDLADIKFELEALGGSEAELAWFELDIADFEQALQQYKGKGNPEVEALRKEAAAIRDELQAYRHN | binds
23 | SEQ ID NO 77 (designed binder) MGSWWEFKEDLAEIKWFLEALGGSEAELAWFEHDIAKFEFELQYYKGKGNPEVEALRKEAAAIRDELQAYRHN | binds
24 | SEQ ID NO 67 (designed binder) MGSWSEFVDRLDAIFDRLWALGGSEAELAWFEDTIAHFEWNLQEYKGKGNPEVEALNGEADAITDELHAYRHN | binds
25 | SEQ ID NO 81 (designed binder) MGSWYIFKEDLAEIKEELEALGGSEAELAYFEEEIALFEMELQWYKGKGNPEVEALRKEAAAIRDELQAYRHN | binds
26 | SEQ ID NO 110 (designed binder) MGSWYEFEYRLEAIEDRLWALGGSEAELAAFEKEIAAFESELQAYKGKGNPEVEYLREEAAWIRVWLQAYRHN | binds

Next, values leading:

Row | binding result | Binder
27 | binds | SEQ ID NO 92 (designed binder) MGSWEEFHSRLDAIDDRLWALGGSEAELAAFEKEIAAFESELQAYKGKGNPEVEWLRWEAATIRETLQAYRHN
28 | binds | SEQ ID NO 93 (designed binder) MGSWSEFWQRLEAIEDRLWALGGSEAELAAFEKEIAAFESELQAYKGKGNPEVEWLRENAAMIRDELQAYRHN
29 | binds | SEQ ID NO 100 (designed binder) MGSWIEFYDRLEAIYDRLDALGGSEAELAAFEKEIAAFESELQAYKGKGNPEVEWLREDAAFIRSWLQAYRHN
30 | binds | SEQ ID NO 104 (designed binder) MGSWTEFHDRLEAIDDRLWALGGSEAELAAFEKEIAAFESELQAYKGKGNPEVEYLREEAAQIRWELQAYRHN
31 | binds | SEQ ID NO 80 (designed binder) MGSWQIFKGELAYIKQYLEALGGSEAELAFFEFDIAEFEEDLQYYKGKGNPEVEALRKEAAAIRDELQAYRHN
32 | binds | SEQ ID NO 66 (designed binder) MGSWEEFDKRLDAITRRLMALGGSEAELAEFESTIAWFEWDLQEYKGKGNPEVEALDWEAYAIDYELGAYRHN
33 | binds | SEQ ID NO 99 (designed binder, also called cg06) MGSWDEFGRRLYAIEWRLYALGGSEAELAAFEKEIAAFESELQAYKGKGNPEVEKLREIAAVIRSNLQAYRHN
34 | binds | SEQ ID NO 71 (designed binder) MGSWDHFKNDLAWIKKHLEALGGSEAELAEFEAVIAYFELYLQGYKGKGNPEVEALRKEAAAIRDELQAYRHN
35 | binds | SEQ ID NO 95 (designed binder) MGSWDEFYYRLEAIEMRLGALGGSEAELAAFEKEIAAFESELQAYKGKGNPEVEELRHYAAQIRHMLQAYRHN
36 | binds | SEQ ID NO 85 (designed binder) MGSWHVFKTELADIKFYLEALGGSEAELAMFELWIAEFEHELQDYKGKGNPEVEALRKEAAAIRDELQAYRHN
37 | binds | SEQ ID NO 90 (designed binder) MGSWILFKDDLAWIKETLEALGGSEAELAFFEDNIADFEEQLQGYKGKGNPEVEALRKEAAAIRDELQAYRHN
38 | binds | SEQ ID NO 91 (designed binder) MGSWQWFKDDLAYIKETLEALGGSEAELALFEDMIADFEFELQWYKGKGNPEVEALRKEAAAIRDELQAYRHN
39 | binds | SEQ ID NO 83 (designed binder) MGSWFNFKEELAVIKFQLEALGGSEAELAFFEWVIADFEDDLQEYKGKGNPEVEALRKEAAAIRDELQAYRHN
40 | binds | SEQ ID NO 72 (designed binder) MGSWEFFKEVLAEIKYDLEALGGSEAELAWFETDIAGFEIDLQVYKGKGNPEVEALRKEAAAIRDELQAYRHN
41 | binds | SEQ ID NO 84 (designed binder) MGSWYMFKEELADIKWYLEALGGSEAELAWFEDDIAGFEWDLQAYKGKGNPEVEALRKEAAAIRDELQAYRHN
42 | binds | SEQ ID NO 82 (designed binder) MGSWYYFKDELADIKWDLEALGGSEAELAWFEMLIAQFELDLQWYKGKGNPEVEALRKEAAAIRDELQAYRHN
